Tests used:
[1] = target: T1, recombinant human ATX beta isoform with N-terminal purification tag (human, UniProt Q13822 49-863); experiment: Fab-His ELISA
Protocol: (§1) Fabs were captured on black MaxiSorp plates (Nunc, Cat. No. 437111) coated with 1 μg/ml sheep anti-human Fd (CH1) antibody (The Binding Site, Cat. No. PC075). Plates were washed and biotinylated human ATX was added to the captured Fabs at 5 nM. Incubation was carried out for 1 hour at room temperature with gentle shaking. Plates were washed, SA-HRP (Invitrogen, Cat. No. 43-4323) was added and chemiluminescent detection carried out.
(§2) Clones with binding above background were sequenced and unique clones identified. […] These clones were identified with binding signal to human ATX at least 6-fold above the background. Table 3 lists the identifier for VH and VL (Peptide ID) and the combination of both (Fab ID) sorted by the Fab ELISA binding data.

[2] = target: T1, recombinant human ATX beta isoform with …; experiment: ELISA, Fab-His captured by anti-Fd, 5 nM biotinylated human ATX beta
Protocol: as §1, §2

Binder | fold above background [1] [fold] | Fab Binding [2]
Fab F3 (VH H2, VL L2) (Fab, V domains shown, Soluble Fab-His) VH: QVQLVQSGAEVKKPGSSVKVSCKASGGTFSSYAISWVRQAPGQGLEWMGGIIPIFGTANYAQKFQGRVTITADESTSTAYMELSSLRSEDTAVYYCARDDLPLGRLDYWGQGTLVTVSS VL: EIVLTQSPATLSLSPGERATLSCRASQSVNNFLAWYQQKPGQAPRLLIYGASNRATGIPARFSGSGSGTDFTLTISSLEPEDFAVYYCQQFKGAPLTFGQGTKVEIK | ≥ 6 | 1.4e+06 relative chemiluminescence units
Fab F7 (VH H2, VL L6) (Fab, V domains shown, Soluble Fab-His) VH: QVQLVQSGAEVKKPGSSVKVSCKASGGTFSSYAISWVRQAPGQGLEWMGGIIPIFGTANYAQKFQGRVTITADESTSTAYMELSSLRSEDTAVYYCARDDLPLGRLDYWGQGTLVTVSS VL: EIVLTQSPATLSLSPGERATLSCRASQSVNSWLAWYQQKPGQAPRLLIYYASNRATGIPARFSGSGSGTDFTLTISSLEPEDFAVYYCQQGHRWPFTFGQGTKVEIK | ≥ 6 | 1.8e+06 relative chemiluminescence units
Fab F8 (VH H2, VL L7) (Fab, V domains shown, Soluble Fab-His) VH: QVQLVQSGAEVKKPGSSVKVSCKASGGTFSSYAISWVRQAPGQGLEWMGGIIPIFGTANYAQKFQGRVTITADESTSTAYMELSSLRSEDTAVYYCARDDLPLGRLDYWGQGTLVTVSS VL: EIVLTQSPATLSLSPGERATLSCRASQSVRDWLAWYQQKPGQAPRLLIYGASNRATGIPARFSGSGSGTDFTLTISSLEPEDFAVYYCQQGDGWPWTFGQGTKVEIK | ≥ 6 | 1.6e+06 relative chemiluminescence units
Fab F9 (VH H2, VL L8) (Fab, V domains shown, Soluble Fab-His) VH: QVQLVQSGAEVKKPGSSVKVSCKASGGTFSSYAISWVRQAPGQGLEWMGGIIPIFGTANYAQKFQGRVTITADESTSTAYMELSSLRSEDTAVYYCARDDLPLGRLDYWGQGTLVTVSS VL: EIVLTQSPATLSLSPGERATLSCRASQSVAKDLAWYQQKPGQAPRLLIYTASNRATGIPARFSGSGSGTDFTLTISSLEPEDFAVYYCQQGINWPFTFGQGTKVEIK | ≥ 6 | 1e+06 relative chemiluminescence units
Fab F11 (VH H2, VL L9) (Fab, V domains shown, Soluble Fab-His) VH: QVQLVQSGAEVKKPGSSVKVSCKASGGTFSSYAISWVRQAPGQGLEWMGGIIPIFGTANYAQKFQGRVTITADESTSTAYMELSSLRSEDTAVYYCARDDLPLGRLDYWGQGTLVTVSS VL: EIVLTQSPATLSLSPGERATLSCRASQSVADFLAWYQQKPGQAPRLLIYTASNRATGIPARFSGSGSGTDFTLTISSLEPEDFAVYYCQQGSTAPYTFGQGTKVEIK | ≥ 6 | 1.8e+06 relative chemiluminescence units
Fab F13 (VH H2, VL L11) (Fab, V domains shown, Soluble Fab-His) VH: QVQLVQSGAEVKKPGSSVKVSCKASGGTFSSYAISWVRQAPGQGLEWMGGIIPIFGTANYAQKFQGRVTITADESTSTAYMELSSLRSEDTAVYYCARDDLPLGRLDYWGQGTLVTVSS VL: EIVLTQSPATLSLSPGERATLSCRASQSVADWLAWYQQKPGQAPRLLIYNASNRATGIPARFSGSGSGTDFTLTISSLEPEDFAVYYCQQYIRWPITFGQGTKVEIK | ≥ 6 | 1.1e+06 relative chemiluminescence units
Fab F34 (VH H2, VL L28) (Fab, V domains shown, Soluble Fab-His; converted to mAb B5) VH: QVQLVQSGAEVKKPGSSVKVSCKASGGTFSSYAISWVRQAPGQGLEWMGGIIPIFGTANYAQKFQGRVTITADESTSTAYMELSSLRSEDTAVYYCARDDLPLGRLDYWGQGTLVTVSS VL: EIVLTQSPATLSLSPGERATLSCRASQSVAKFLAWYQQKPGQAPRLLIYKASNRATGIPARFSGSGSGTDFTLTISSLEPEDFAVYYCQQFNSAPITFGQGTKVEIK | ≥ 6 | 2.3e+06 relative chemiluminescence units
Fab F35 (VH H25, VL L29) (Fab, V domains shown, Soluble Fab-His) VH: QVQLVQSGAEVKKPGSSVKVSCKASGGTFSSYAISWVRQAPGQGLEWMGGIIPIFGTANYAQKFQGRVTITADESTSTAYMELSSLRSEDTAVYYCARDDLALGRLDYWGQGTLVTVSS VL: EIVLTQSPATLSLSPGERATLSCRASQSVAKFLAWYQQKPGQAPRLLIYKASNRATGIPARFSGSGSGTDFTLTISSLEPEDFAVYYCQQGHGWPRTFGQGTKVEIK | ≥ 6 | 2.1e+06 relative chemiluminescence units
Fab F43 (VH H2, VL L44) (Fab, V domains shown, Soluble Fab-His) VH: QVQLVQSGAEVKKPGSSVKVSCKASGGTFSSYAISWVRQAPGQGLEWMGGIIPIFGTANYAQKFQGRVTITADESTSTAYMELSSLRSEDTAVYYCARDDLPLGRLDYWGQGTLVTVSS VL: EIVLTQSPATLSLSPGERATLSCRASQSVAKFLAWYQQKPGQAPRLLIYKASNRATGIPARFSGSGSGTDFTLTISSLEPEDFAVYYCQQYSTWPFTFGQGTKVEIK | ≥ 6 | 980000 relative chemiluminescence units
Fab F45 (VH H2, VL L34) (Fab, V domains shown, Soluble Fab-His) VH: QVQLVQSGAEVKKPGSSVKVSCKASGGTFSSYAISWVRQAPGQGLEWMGGIIPIFGTANYAQKFQGRVTITADESTSTAYMELSSLRSEDTAVYYCARDDLPLGRLDYWGQGTLVTVSS VL: EIVLTQSPATLSLSPGERATLSCRASQSVSSWLAWYQQKPGQAPRLLIYYASNRATGIPARFSGSGSGTDFTLTISSLEPEDFAVYYCQQFKGWPFTFGQGTKVEIK | ≥ 6 | 1.2e+06 relative chemiluminescence units
Fab F50 (VH H25, VL L46) (Fab, V domains shown, Soluble Fab-His) VH: QVQLVQSGAEVKKPGSSVKVSCKASGGTFSSYAISWVRQAPGQGLEWMGGIIPIFGTANYAQKFQGRVTITADESTSTAYMELSSLRSEDTAVYYCARDDLALGRLDYWGQGTLVTVSS VL: EIVLTQSPATLSLSPGERATLSCRASQSVSSFLAWYQQKPGQAPRLLIYTASNRATGIPARFSGSGSGTDFTLTISSLEPEDFAVYYCQQSHRAPWTFGQGTKVEIK | ≥ 6 | 1.9e+06 relative chemiluminescence units
Fab F71 (VH H2, VL L65) (Fab, V domains shown, Soluble Fab-His) VH: QVQLVQSGAEVKKPGSSVKVSCKASGGTFSSYAISWVRQAPGQGLEWMGGIIPIFGTANYAQKFQGRVTITADESTSTAYMELSSLRSEDTAVYYCARDDLPLGRLDYWGQGTLVTVSS VL: EIVLTQSPATLSLSPGERATLSCRASQSVSDYLAWYQQKPGQAPRLLIYDASNRATGIPARFSGSGSGTDFTLTISSLEPEDFAVYYCQQGSDAPLTFGQGTKVEIK | ≥ 6 | 1.7e+06 relative chemiluminescence units
Fab F102 (VH H2, VL L91) (Fab, V domains shown, Soluble Fab-His) VH: QVQLVQSGAEVKKPGSSVKVSCKASGGTFSSYAISWVRQAPGQGLEWMGGIIPIFGTANYAQKFQGRVTITADESTSTAYMELSSLRSEDTAVYYCARDDLPLGRLDYWGQGTLVTVSS VL: EIVLTQSPATLSLSPGERATLSCRASQSVADWLAWYQQKPGQAPRLLIYKASNRATGIPARFSGSGSGTDFTLTISSLEPEDFAVYYCQQSFRWPLTFGQGTKVEIK | ≥ 6 | 1.3e+06 relative chemiluminescence units
Fab F123 (VH H120, VL PH9L4) (Fab, V domains shown, Soluble Fab-His) VH: QVQLVQSGAEVKKPGSSVKVSCKASGGTFSSYAISWVRQAPGQGLEWMGGIIPIFGTANYAQKFQGRVTITADESTSTAYMELSSLRSEDTAVYYCARHDVNSLWAYFDYWGQGTLVTVSS VL: not shown | ≥ 6 | 1.4e+06 relative chemiluminescence units
Fab F142 (VH H146, VL L121) (Fab, V domains shown, Soluble Fab-His) VH: QVQLVQSGAEVKKPGSSVKVSCKASGGTFSSYAISWVRQAPGQGLEWMGGIIPIFGTANYAQKFQGRVTITADESTSTAYMELSSLRSEDTAVYYCARGDYNAIYYALDYWGQGTLVTVSS VL: DIQMTQSPSSLSASVGDRVTITCRASQSISSYLNWYQQKPGKAPKLLIYAASSLQSGVPSRFSGSGSGTDFTLTISSLQPEDFATYYCQQPISFPYTFGQGTKVEIK | ≥ 6 | 1.3e+06 relative chemiluminescence units
Fab F133 (VH H134, VL L117) (Fab, V domains shown, Soluble Fab-His) VH: QVQLVQSGAEVKKPGSSVKVSCKASGGTFSSYAISWVRQAPGQGLEWMGGIIPIFGTANYAQKFQGRVTITADESTSTAYMELSSLRSEDTAVYYCARGADSNAVRLVGFDYWGQGTLVTVSS VL: EIVLTQSPGTLSLSPGERATLSCRASQSVAYSSLAWYQQKPGQAPRLLIYAASSRATGIPDRFSGSGSGTDFTLTISRLEPEDFAVYYCQQSNTPPLTFGQGTKVEIK | ≥ 6 | 1.2e+06 relative chemiluminescence units
Fab F144 (VH H149, VL L122) (Fab, V domains shown, Soluble Fab-His) VH: QVQLVQSGAEVKKPGSSVKVSCKASGGTFSSYGISWVRQAPGQGLEWMGGIIPIFGTANYAQKFQGRVTITADESTSTAYMELSSLRSEDTAVYYCAREDVNYISTYSEFDYWGQGTLVTVSS VL: EIVLTQSPGTLSLSPGERATLSCRASQSVRKSGLAWYQQKPGQAPRLLIYNASSRATGIPDRFSGSGSGTDFTLTISRLEPEDFAVYYCQQATKPPLTFGQGTKVEIK | ≥ 6 | 1.2e+06 relative chemiluminescence units
Fab F33 (VH H24, VL L35) (Fab, V domains shown, Soluble Fab-His; converted to mAb B15; the Fab's H24 may differ in FR1) VH: not shown VL: DIQMTQSPSSLSASVGDRVTITCRASQSIHNWLNWYQQKPGKAPKLLIYAASSLQSGVPSRFSGSGSGTDFTLTISSLQPEDFATYYCQQSYSTPLTFGQGTKVEIK | ≥ 6 | 1.1e+06 relative chemiluminescence units
Fab F54 (VH H44, VL IFWL195) (Fab, V domains shown, Soluble Fab-His; converted to mAb B17; the Fab's H44 may differ in FR1) VH: not shown VL: DIQMTQSPSSLSASVGDRVTITCRASQSIANWLNWYQQKPGKAPKLLIYAASSLQSGVPSRFSGSGSGTDFTLTISSLQPEDFATYYCQQSYSTPLTFGQGTKVEIK | ≥ 6 | 980000 relative chemiluminescence units
Fab F16 (VH H10, VL L13) (Fab, V domains shown, Soluble Fab-His; converted to mAb B2) VH: EVQLVQSGAEVKKPGESLKISCKGSGYSFTSYWIGWVRQMPGKGLEWMGIIYPGDSDTRYSPSFQGQVTISADKSISTAYLQWSSLKASDTAMYYCARGLADFWYFDYWGQGTLVTVSS VL: DIQMTQSPSSLSASVGDRVTITCRASQSIDVWLNWYQQKPGKAPKLLIYAASSLQSGVPSRFSGSGSGTDFTLTISSLQPEDFATYYCQQSYSTPLTFGQGTKVEIK | ≥ 6 | 3.9e+06 relative chemiluminescence units
